{"source": "patent US20260008856A1", "about": "“METHODS OF TREATING DISEASE USING ANTI-IL1RAP ANTIBODIES AND ANTIBODY DRUG CONJUGATES” (Bluefin Biomedicine, Inc., priority 2022, published 2026)", "molecules": {"B1": {"name": "37E10_15B5: human anti-IL1RAP antibody BFB759 (i.e., 37E10_15B5), VH SEQ ID NO: 64, VL SEQ ID NO: 68 (antibody, V domains shown)", "VH": "QVQLVESGGGVVQPGRSLRLSCAASGFTFRSHGMHWVRQAPGKGLEWVAVIWYDGSSEYYADSVKGRFTISRDNSKNTLYLQMNSLRAEDTAVYYCARENVYGSGWFFDYWGQGTLVTVSS", "VL": "EIVMTQSPATLSVSPGERASLSCRASQSVGSNLAWYQQRPGQAPRLLIFGASTRATGIPARFSGSRSGTEFTLTISSLQSEDFALYYCQQYNNWPPWTFGQGTKLEIK"}}, "key": {"[1]": {"system": "EOL-1", "test": "Flow cytometry binding to endogenous cell line EOL-1", "type": "cell-based, human", "parameters": "key to binding to EOL-1 by flow cytometry: (−): No binding; (+): Weak binding; (++): Moderate binding; (+++): Strong binding", "details": "primary antibody 1 ug/ml", "procedure,_shortened": "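Live cells stained on ice for 30 minutes with primary antibody at 1 ug/ml in cold PBS/0.5% BSA, then washed and detected with Alexa Fluor 488 anti-human IgG (1:1000). Binding read by flow cytometry on endogenous IL1RAP-positive lines.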"}, "[2]": {"system": "IL-1α signaling", "test": "IL-1 signaling reporter cell assay, IL-1α", "type": "cell-based", "details": "serial dilution of antibody", "description": "(§1) HEK-Blue IL-1β cells (Invivogen, CA) were harvested and plated in technical duplicates at a density of 50,000 cells per well in a 96-well plate. IL1RAP antibodies, or a corresponding human IgG1 control antibody was added to the wells in a concentration range of […]. After incubating cells with antibodies for 30 minutes, IL-1β was added to a final concentration of 0.5 ng/ml, and the plate was incubated overnight. To examine whether any of the antibodies were able to induce IL-1R activation in the absence of IL-1β, samples were incubated with 10 μg/mL antibody without addition of the ligand. The following day, substrate was added to the supernatants, and samples were analyzed for absorbance at 620 nm.\nIn addition, serial dilution of IL1RAP antibodies was performed to determine EC50 against IL-1β and IL-1α (FIGS. 6B and 6C). Many of these antibodies, including 37E10_15B5 and 44E5_15C5 can block IL-1β and IL-1α signaling with subnanomolar EC50."}, "[3]": {"system": "IL-33 signaling", "test": "IL-33 signaling reporter cell assay (HEK-Blue IL-33 cells)", "type": "cell-based", "details": "antibody 1-10 μg/ml, IL-33 0.5 ng/ml", "description": "FIGS. 7A and 7B show blockage of IL-33 signaling by anti-IL1RAP antibodies. HEK-Blue IL-33 cells (Invivogen, CA) were harvested and plated in technical duplicates at a density of 50,000 cells per well in a 96-well plate. Antibodies, or a corresponding human IgG1 control antibody, was added to the wells in a serial dilution starting at 10 μg/ml (FIG. 7A), or a concentration of 1 and 10 μg/ml (FIG. 7B). After incubating cells with antibodies for 30 minutes, IL-33 was added to a final concentration of 0.5 ng/ml, and the plate was incubated overnight. 24 hours later, substrate was added to the supernatants, and samples were analyzed for absorbance at 620 nm. CBIgG1 (anti-hen egg lysozyme antibody, CrownBio™) was included as a negative control.\nas §1, with “IL-33” for “IL-1β”, “plate.” for “plate. IL1RAP”, “ST2” for “IL-1R”, “IL-33,” for “IL-1β,”"}, "[4]": {"system": "TARC production in HDM stimulated human PBMCs", "test": "TARC production in HDM stimulated human PBMCs", "type": "cell-based", "details": "antibodies 30 ug/ml, HDM 10 ug/ml", "description": "Materials included Human peripheral blood mononuclear cells (PBMCs) that were isolated from healthy donor blood and either frozen in liquid nitrogen and thawed prior to analysis or used fresh. Materials also included HDM (house dust mite extract) that was from Greer lab and purchased through Fisher Scientific (NC9756554, Lot #390844). Additionally, Human IL-4 (204-IL-010) was purchased from R&D Systems; Human IL-13 (200-13) was purchased from Peprotech; JAK inhibitors (JAKi) Abrocitinib (HY-107429) and Upadacitinib (HY-19569) were purchased from MedChemExpress; Dexamethasone (D4902) was purchased from Sigma-Aldrich; Dupilumab (HY-P9926) was purchased from MedChemExpress; Tralokinumab was produced by Bluefin Biomedicine according to the published protein sequence; and TARC ELISA kits (DuoSet Cat #DY364, Quantikine Cat #SDN00) were purchased from R&D Systems.\nBlood was drawn in heparin tubes from healthy volunteers. PBMCs were isolated by centrifugation of the blood over Ficoll-Paque Plus density gradients using LeucoSep tubes.\n0.2 million PBMCs in 100 ul medium (RPMI1640, 10% heat-inactivated FBS) were added to each well of 96 well cell culture plate. BFB759 at multiple concentrations in 50 ul medium was added to the wells. The cells were incubated in the incubator for 45 min. Then, 50 ul HDM solution (final concentration 10 ug/ml) was added to the wells. […]"}, "[5]": {"system": "normal human dermal fibroblasts (NHDF)", "test": "IL-6 and IL-8 production in NHDF stimulated with cytokine combo incl. IL-17A", "type": "cell-based", "details": "cytokine combo IL-1α/β, IL-36α/β/γ, antibodies 0-20 ug/ml, BFB759 0.5 ug/ml in combination", "description": "Human NHDF cells were plated on 96-well, flat-bottom plates at 4,000 cells/well. […] For combination therapy, 0.5 ug/ml BFB759 was mixed with Secukinumab or Isotype control antibody at increasing concentrations (0-20 ug/ml, 5-fold dilution) and incubated with cells in duplicate for 45 minutes, prior to the addition of cytokine combo. The plates were then incubated overnight at 37° C., 5% CO2. 24 hours after treatment, supernatants were transferred and assayed for IL-6 and IL-8, as per manufacture's protocol (R&D Systems; Human IL-6 DuoSet ELISA, Human IL-8/CXCL8 DuoSet ELISA). The raw assay data were analyzed using GraphPad Prism 9 software to perform a non-linear regression."}}, "data": [{"molecule": "B1", "values": [{"measurement": "binding to EOL-1 by flow cytometry", "setting": "[1]", "result": "(+++)"}, {"measurement": "EC50 against IL-1α", "setting": "[2]", "result": "subnanomolar"}, {"measurement": "inhibition of IL-33 signaling", "setting": "[3]", "result": "partially inhibit"}, {"measurement": "inhibition of HDM induced TARC level, FIG. 13", "setting": "[4]", "result": "inhibits"}, {"measurement": "IL-6 production", "setting": "[5]", "result": "dose-dependent decrease"}, {"measurement": "IL-8 production", "setting": "[5]", "result": "dose-dependent decrease"}]}]}
